In test [1] the target is CRF receptors on rat anterior pituitary cells (rat).
Test [2] has the same target. This is another data set of the same source.
Test [3] shares this target. The source holds these as a separate data set.
For test [4] the target is unchanged. This is another data set of the same source.
Test [5] shares this target. This is another data set of the same source.
Test [6] shares this target. This is another data set of the same source.
Test [7] shares this target. This is another data set of the same source.
The target is the same in test [8]. The source holds these as a separate data set.
Test [9] shares this target. The source holds these as a separate data set.
Test [10] has the same target. This is another data set of the same source.
The target is the same in test [11]. The source holds these as a separate data set.
Test [12] shares this target. This is another data set of the same source.
Test [13] has the same target. This is another data set of the same source.
Test [14] shares this target. This is another data set of the same source.
Test [15] has the same target. This is another data set of the same source.
Test [16] shares this target. This is another data set of the same source.
Test [17] has the same target. This is another data set of the same source.
For test [18] the target is unchanged. This is another data set of the same source.
Test [19] shares this target. This is another data set of the same source.
For test [20] the target is unchanged. The source holds these as a separate data set.
For test [21] the target is unchanged. This is another data set of the same source.
For test [22] the target is unchanged. The source holds these as a separate data set.
The target is the same in test [23]. The source holds these as a separate data set.
For test [24] the target is unchanged. The source holds these as a separate data set.
The target is the same in test [25]. The source holds these as a separate data set.
Test [26] shares this target. The source holds these as a separate data set.
The target is the same in test [27]. This is another data set of the same source.
Test [28] has the same target. The source holds these as a separate data set.
Test [29] has the same target. This is another data set of the same source.
Test [30] has the same target. This is another data set of the same source.
For test [31] the target is unchanged. This is another data set of the same source.
Test [32] shares this target. The source holds these as a separate data set.
For test [33] the target is unchanged. This is another data set of the same source.
For test [34] the target is unchanged. This is another data set of the same source.
Test [35] shares this target. This is another data set of the same source.
For test [36] the target is unchanged. The source holds these as a separate data set.
The target is the same in test [37]. The source holds these as a separate data set.
The target is the same in test [38]. The source holds these as a separate data set.
The target in test [39] is CRF-RA. Nature of the test: binding assay.
The target of test [40] is CRF receptors on rat anterior pituitary cells (rat). This is another data set of the same source.
Test [41] deals with hCRF-RA1 (human) (UniProt P34998). Description: radioligand binding assay.

The values below come from patent US5777073.

Like-named read-outs stand apart in the source and are kept apart here. Bounds are passed on as bounds.

By Kd is commonly meant the equilibrium constant for the complex coming apart. A lower Kd goes with higher affinity.

“(bicyclo 20-23, 30-33) D-Phe^12, Nle^21,38, D-Ala^22, LyS^23,33, Glu^30, D-His^32 !-r/hCRF(12-41) (peptide)” returned an in vitro biopotency: inhibition of ACTH secretion (times the Standard) in test [1] of 8.61.

Substance “(bicyclo 20-23, 30-33) D-Phe^12, Nle^21,38, Lys^23,33, Glu^30 !-r/hCRF(12-41) (peptide)” had an in vitro biopotency: inhibition of ACTH secretion (times the Standard) in test [2] of 8.3.

“(cyclo 29-32) D-Leu^11, Nle^17, Glu^29, D-Ala^31, Lys^32 !-Sauvagine (11-40) (peptide)”: the in vitro biopotency: inhibition of ACTH secretion (times the Standard) in test [3] was 15.

In test [4], “(cyclo 29-32) D-Leu^11, Nle^17, Glu^29, Lys^32 !-sauvagine(11-40) (peptide)” came in with an in vitro biopotency: inhibition of ACTH secretion (times the Standard) of 22.

As to “(cyclo 29-33) D-Phe^12, Nle^21,38, Glu^29, D-His^32, Lys^33 -r/hCRF(12-41) (peptide)”, the in vitro biopotency: inhibition of ACTH secretion (times the Standard) in test [5] was 26.

In turn, “(cyclo 30-33) Ac-Asp^9, D-Phe^2, Nle^21,38, CML^27, Glu^30, D-His^32, Lys^33 -r/hCRF(9-41) (peptide)” yielded an in vitro biopotency: inhibition of ACTH secretion (times Peptide IV) in [6] of 2.22.

“(cyclo 30-33) Ac-Asp^9, D-Phe^12, CML^18,27, Nle^21,38, Glu^30, Lys^33 -r/hCRF(9-41) (peptide)” had an in vitro biopotency: inhibition of ACTH secretion (times the Standard) in [7] of 13.

“(cyclo 30-33) Ac-Asp^9, D-Phe^12, Nle^21,38, CML^27, Glu^30, Lys^33 !-r/hCRF(9-41) (peptide)” came in with an in vitro biopotency: inhibition of ACTH secretion (times Peptide IV) in test [8] of 1.2.

“(cyclo 30-33) Ac-Asp^9, D-Phe^12, Nle^21,38, Glu^30, Lys^33 !-r/hCRF(9-41) (peptide)”: the in vitro biopotency: inhibition of ACTH secretion (times the Standard) in test [9] was found to be 172.

Take “(cyclo 30-33) Ac-Asp^9, D-Phe^12, Nle^21, CML^27,37, Glu^30, Lys^33 -r/hCRF(9-41) (peptide)”: in [10], the in vitro biopotency: inhibition of ACTH secretion (times the Standard) stood at 1.4.

In test [11], “(cyclo 30-33) Ac-D-Phe^12, Nle^21,38, CML^27, Glu^30, D-His^32, Lys^33 !-r/hCRF(12-41) (peptide)” yielded an in vitro biopotency: inhibition of ACTH secretion (times the Standard) of 43.

“(cyclo 30-33) Ac-D-Phe^12, Nle^21,38, CML^27, Glu^30, Lys^33 !-r/hCRF(12-41) (peptide)” gave an in vitro biopotency: inhibition of ACTH secretion (times Peptide IV) in test [12] of 1.65.

In test [13], “(cyclo 30-33) Ac-D-Phe^12, Nle^21,38, Glu^30, D-His^32, Lys^33 !-r/hCRF(12-41) (peptide)” came in with an in vitro biopotency: inhibition of ACTH secretion (times Peptide IV) of 1.24.

As to “(cyclo 30-33) Ac-D-Phe^12, Nle^21,38, Glu^30, Lys^33 !-r/hCRF(12-41) (peptide)”, in [9], the in vitro biopotency: inhibition of ACTH secretion (times the Standard) was 36.5.

For the substance “(cyclo 30-33) Ac-Leu^10, D-Phe^12, Nle^21,38, Glu^30, Lys^33 !-r/hCRF(10-41) (peptide)”, the in vitro biopotency: inhibition of ACTH secretion (times the Standard) in test [9] stood at 34.

Regarding “(cyclo 30-33) Ac-Thr^11, D-Phe^12, CML^15,27, Nle^21,38, Glu^30, D-His^32, Lys^33 -r/hCRF(11-41) (peptide)”, the in vitro biopotency: inhibition of ACTH secretion (times Peptide IV) in test [14] came out at 1.11.

In test [15], “(cyclo 30-33) Ac-Thr^11, D-Phe^12, CML^18,27, Nle^21,38, Glu^30, D-His^32, Lys^33 !-r/hCRF(11-41) (peptide)” showed an in vitro biopotency: inhibition of ACTH secretion (times Peptide IV) of 1.94.

With “(cyclo 30-33) Ac-Thr^11, D-Phe^12, Nle^21,38, CML^27, Glu^30, D-His^32, Lys^33 !-r/hCRF(11-41) (peptide)”, the in vitro biopotency: inhibition of ACTH secretion (times Peptide IV) in test [16] amounted to 1.4.

For “(cyclo 30-33) Ac-Thr^11, D-Phe^12, Nle^21,38, Glu^30, D-His^32, Lys^33 !-r/hCRF(11-41) (peptide)”, in test [17], the in vitro biopotency: inhibition of ACTH secretion (times Peptide IV) turned out to be 3.08.

In turn, “(cyclo 30-33) Ac-Thr^11, D-Phe^12, Nle^21,38, Glu^30, Lys^33 !-r/hCRF(11-41) (peptide)” showed an in vitro biopotency: inhibition of ACTH secretion (times the Standard) in test [9] of 64.

As to “(cyclo 30-33) D-Phe^12, CML^14, Nle^21,38, Glu^30, D-His^32, Lys^33 !-r/hCRF(12-41) (peptide)”, in [18], the in vitro biopotency: inhibition of ACTH secretion (times the Standard) came to 15.

In the case of “(cyclo 30-33) D-Phe^12, CML^15, Nle^21,38, Glu^30, D-His^32, Lys^33 !-r/hCRF(12-41) (peptide)”, the in vitro biopotency: inhibition of ACTH secretion (times the Standard) in test [19] came to 20.3.

Take “(cyclo 30-33) D-Phe^12, CML^15, Nle^21,38, Glu^30, imBzlD-His^32, Lys^33 !-r/hCRF (12-41) (peptide)”: the in vitro biopotency: inhibition of ACTH secretion (times the Standard) in test [20] was 23.5.

Regarding “(cyclo 30-33) D-Phe^12, CML^19, Nle^21,38, Glu^30, D-His^32, Lys^33 !-r/hCRF(12-41) (peptide)”, the in vitro biopotency: inhibition of ACTH secretion (times the Standard) in [21] came out at 4.5.

In test [22], “(cyclo 30-33) D-Phe^12, Nle^18,21, Glu^30, D-Ala^32, Lys^33 !-Carp Urotensin I (12-41) (peptide)” had an in vitro biopotency: inhibition of ACTH secretion (times Peptide IV) of 0.831.

In test [23], “(cyclo 30-33) D-Phe^12, Nle^18,21, Glu^30, Lys^33 !-Sucker Urotensin I(12-41) (peptide)” showed an in vitro biopotency: inhibition of ACTH secretion (times Peptide IV) of 1.32.

As to “(cyclo 30-33) D-Phe^12, Nle^21,38, CML^27, Glu^30, D-His^32, Lys^33 !-r/hCRF(11-41) (peptide)”, in test [24], the in vitro biopotency: inhibition of ACTH secretion (times Peptide IV) stood at 1.26.

For the substance “(cyclo 30-33) D-Phe^12, Nle^21,38, CML^27, Glu^30, D-His^32, Lys^33 !-r/hCRF(12-41) (peptide)”, the in vitro biopotency: inhibition of ACTH secretion (times the Standard) in [25] came to 53.6.

Take “(cyclo 30-33) D-Phe^12, Nle^21,38, Glu^30, D-2Nal^32, Lys^33 !-r/hCRF(12-41) (peptide)”: the in vitro biopotency: inhibition of ACTH secretion (times the Standard) in test [26] was found to be 18.

For “(cyclo 30-33) D-Phe^12, Nle^21,38, Glu^30, D-Arg^32, Lys^33 !-r/hCRF(12-41) (peptide)”, the in vitro biopotency: inhibition of ACTH secretion (times the Standard) in [27] worked out at 60.

The substance “(cyclo 30-33) D-Phe^12, Nle^21,38, Glu^30, D-Glu^32, Lys^33 !-r/hCRF(12-41) (peptide)” had an in vitro biopotency: inhibition of ACTH secretion (times the Standard) in test [28] of 10.

For the substance “(cyclo 30-33) D-Phe^12, Nle^21,38, Glu^30, D-His^32, Lys^33 !-r/hCRF(11-41) (peptide)”, the in vitro biopotency: inhibition of ACTH secretion (times Peptide IV) in test [29] was 0.78.

In [30], “(cyclo 30-33) D-Phe^12, Nle^21,38, Glu^30, D-His^32, Lys^33 !-r/hCRF(12-41) (peptide)” yielded an in vitro biopotency: inhibition of ACTH secretion (times the Standard) of 80.3.

For the substance “(cyclo 30-33) D-Phe^12, Nle^21,38, Glu^30, D-His^32, Lys^33, CML^37 !-r/hCRF(12-41) (peptide)”, the in vitro biopotency: inhibition of ACTH secretion (times the Standard) in test [31] came out at 16.

For “(cyclo 30-33) D-Phe^12, Nle^21,38, Glu^30, Lys^33 !-r/hCRF(9-41) (peptide)”, the in vitro biopotency: inhibition of ACTH secretion (times the Standard) in [32] stood at 33.8.

Take “(cyclo 30-33) D-Phe^12, Nle^21,38, Glu^30, Lys^33 !-r/hCRF(10-41) (peptide)”: in [33], the in vitro biopotency: inhibition of ACTH secretion (times the Standard) is 31.6.

As for “(cyclo 30-33) D-Phe^12, Nle^21,38, Glu^30, Lys^33 !-r/hCRF(11-41) (peptide)”, the in vitro biopotency: inhibition of ACTH secretion (times the Standard) in [34] came out at 40.3.

With “(cyclo 30-33) D-Phe^12, Nle^21,38, Glu^30, Lys^33 !-r/hCRF(12-41) (peptide)”, in test [35], the in vitro biopotency: inhibition of ACTH secretion (times the Standard) came out at 33. Further, the intrinsic CRF activity in test [36] is less than 3%.

In test [37], “(cyclo 30-33) D-Tyr^12, Glu^13, Lys^17,33, Nle^21,38, Glu^30, Asn^32, Arg^36 !-r/hCRF(12-41) (peptide)” displayed an in vitro biopotency: inhibition of ACTH secretion (times the Standard) of 49.

With “(cyclo 30-33) D-Tyr^12, Nle^21,38, Glu^30, Asn^32, Lys^33, Arg^36 !-r/hCRF (12-41) (peptide)”, in [38], the in vitro biopotency: inhibition of ACTH secretion (times the Standard) came to 79.

“(cyclo 30-33) D-Tyr^12, Nle^21,38, Glu^30, Lys^33 !-r/hCRF(12-41) (peptide)” gave a Kd in test [39] of 2 nM. In [40], this substance returned an in vitro biopotency: inhibition of ACTH secretion (times the Standard) of 5.6.

On to “(cyclo 30-33) I^125 -D-Tyr^12, Glu^30, Lys^33, Nle^21,38 !-r/hCRF(12-41) (peptide)”, for which the Kd in [41] worked out at 2 nM.
